Data as given in article PMC3336217, “^111In-Labeled Cystine-Knot Peptides Based on the Agouti-Related Protein for Targeting Tumor Angiogenesis” (Journal of Biomedicine and Biotechnology, 2012).
Positions of bridges follow the written chain, without caps; N, C: chain ends. Residues, ends and D or L forms follow the SMILES beside them. *: point of attachment. DOTA = O=C(O)CN1CCN(CC(=O)O)CCN(CC(=O)*)CCN(CC(=O)O)CC1

Columns and labels:
[1] = system: nude mice bearing subcutaneous U87MG human glioblastoma xenografts; experiment: in vivo; details: female, athymic nu/nu, mouse, iv, 2 h
Experimental: (§1) All animal studies were carried out in compliance with federal and local institutional rules for animal experimentation. Approximately, 10^7 U87MG cells were suspended in PBS and subcutaneously implanted in the left shoulders of female athymic nu/nu mice. Tumors were allowed to grow to a size of 0.5 cm (2-3 weeks) before imaging experiments were performed. For biodistribution studies, U87MG tumor-bearing mice (n = 3 for each group) were injected with ^111In-DOTA-AgRP-7C (0.259–0.37 MBq, […]) or ^111In-DOTA-AgRP-6E (0.296–0.444 MBq, 8–12 μCi) via the tail vein and sacrificed at different time points (0.5, 2, 24, and 48 h) after injection (p.i.). Tumor and normal tissues of interest were removed and weighed, and their radioactivity was measured with a γ-counter. Radioactivity uptake was expressed as the percent injected dose per gram of tissue (%ID/g). To test the in vivo αvβ3 integrin targeting specificity of the probe, U87MG tumor-bearing mice (n = 3 for each group) were injected via the tail vein with a mixture of ^111In-DOTA-AgRP-7C (0.259–0.37 MBq, 7–10 μCi) and 330 μg of c(RGDyK). The mice were sacrificed at 2 h p.i. and the biodistribution of the radiolabeled peptide was measured as above.
(§2) Quantitative data were expressed as mean ± SD. Means were compared using the Student t-test. A 95% confidence level was chosen to determine the significance between groups, with P values of less than 0.05 indicating significant differences.

in vivo = details: female, athymic nu/nu, mouse, iv, total radioactivity
Experimental: as §1, §2

in vitro = in vitro ADME; details: mouse, serum
Experimental: Radiolabeled AgRP* peptides were incubated in 0.01 M PBS (pH 7.4) at 37°C for 24 h and monitored for degradation by HPLC. Stability was also tested by incubating 0.74 MBq (20 μCi) ^111In-DOTA-AgRP-7C or ^111In-DOTA-AgRP-6E in 400 μL of mouse serum at 37°C for 2 h. Afterward, the mixture was re-suspended in 0.5 mL of DMF containing 5 μL of Triton X-100 and centrifuged at 16,000 g for 2 min. The supernatant, which contained >95% of the starting radioactivity, was filtered using a 10 K NanoSep device (Pall Corporation, East Hills, NY, USA). Greater than 99% of the radioactive material passed through this filter. The samples were analyzed by radio-HPLC, and the percentage of intact peptide was determined by quantifying peaks corresponding to the intact peptide and to the degradation products.
Figure 1 Stability analysis of ^111In-DOTA-AgRP-7C (a) and (b), and ^111In-DOTA-AgRP-6E (c) and (d) in PBS and mouse serum. The two radiopeptides were incubated with PBS for 24 h at […], and mouse serum for 2 h at 37°C.

Structure (SMILES): CC(C)C[C@@H]1NC(=O)[C@@H]2CSSC[C@@H]3NC(=O)[C@H]([C@@H](C)O)NC(=O)[C@H](C)NC(=O)[C@H](C)NC(=O)[C@@H]4CCCN4C(=O)[C@H](CC(=O)O)NC(=O)[C@H](CSSC[C@H](NC(=O)CNC(=O)CN4CCN(CC(=O)O)CCN(CC(=O)O)CCN(CC(=O)O)CC4)C(=O)N[C@@H](C(C)C)C(=O)N[C@@H](CCCNC(=N)N)C(=O)N[C@@H](CC(C)C)C(=O)N[C@@H](Cc4c[nH]cn4)C(=O)N[C@@H](CCC(=O)O)C(=O)N[C@@H](CO)C(=O)N2)NC(=O)[C@H](CSSC[C@@H](C(=O)N[C@@H](CCCNC(=N)N)C(=O)O)NC(=O)[C@H](Cc2ccc(O)cc2)NC(=O)[C@@H]2CSSC[C@H](NC(=O)[C@H](Cc4ccc(O)cc4)NC3=O)C(=O)N[C@@H](Cc3ccc(O)cc3)C(=O)NCC(=O)N[C@@H](CCCNC(=N)N)C(=O)NCC(=O)N[C@@H](CC(=O)O)C(=O)N[C@@H](CC(N)=O)C(=O)N[C@@H](CC(=O)O)C(=O)N[C@@H](CC(C)C)C(=O)N[C@@H](CCCNC(=N)N)C(=O)N2)NC(=O)[C@@H]2CCCN2C(=O)[C@H](C(C)C)NC(=O)[C@H](CCC(N)=O)NC(=O)[C@H](CCC(N)=O)NC(=O)CNC1=O [111In-DOTA-AgRP-7C, metal not drawn] ({DOTA}-GCVRLHESCLGQQVPCCDPAATCYCYGRGDNDLRCYCR-OH; disulfide 2-17, 9-23, 16-37, 25-35)
- Intestine uptake [1]: 0.60 ± 0.13 %ID/g
- Liver uptake [1]: 0.43 ± 0.16 %ID/g
- Lung uptake [1]: 0.86 ± 0.20 %ID/g
- Spleen uptake [1]: 0.88 ± 0.21 %ID/g
- Tumor uptake [1]: 2.35 ± 0.36 %ID/g
- Tumor-to-muscle ratio [1]: 39.83 ± 9.16
- tissue uptake at 0.5 h (in vivo; Blood uptake): 0.68 ± 0.26 %ID/g
- tissue uptake at 2 h (in vivo; Blood uptake): 0.1 ± 0.02 %ID/g
- tissue uptake at 24 h (in vivo; Blood uptake): 0.01 %ID/g
- tissue uptake at 48 h (in vivo; Blood uptake): 0.01 %ID/g
- tissue uptake at 0.5 h (in vivo; Bone uptake): 1.41 ± 0.36 %ID/g
- tissue uptake at 2 h (in vivo; Bone uptake): 0.63 ± 0.05 %ID/g
- tissue uptake at 24 h (in vivo; Bone uptake): 0.39 ± 0.07 %ID/g
- tissue uptake at 48 h (in vivo; Bone uptake): 0.24 ± 0.05 %ID/g
- tissue uptake at 0.5 h (in vivo; Brain uptake): 0.04 ± 0.02 %ID/g
- tissue uptake at 2 h (in vivo; Brain uptake): 0.02 ± 0.01 %ID/g
- tissue uptake at 24 h (in vivo; Brain uptake): 0.01 %ID/g
- tissue uptake at 48 h (in vivo; Brain uptake): 0.01 ± 0.01 %ID/g
- tissue uptake at 0.5 h (in vivo; Heart uptake): 0.45 ± 0.16 %ID/g
- tissue uptake at 2 h (in vivo; Heart uptake): 0.12 ± 0.02 %ID/g
- tissue uptake at 24 h (in vivo; Heart uptake): 0.04 ± 0.01 %ID/g
- tissue uptake at 48 h (in vivo; Heart uptake): 0.03 %ID/g
- tissue uptake at 0.5 h (in vivo; Intestine uptake): 2.02 ± 0.71 %ID/g
- tissue uptake at 24 h (in vivo; Intestine uptake): 0.29 ± 0.02 %ID/g
- tissue uptake at 48 h (in vivo; Intestine uptake): 0.22 ± 0.03 %ID/g
- tissue uptake at 0.5 h (in vivo; Kidneys uptake): 33.9 ± 8.35 %ID/g
- tissue uptake at 2 h (in vivo; Kidneys uptake): 30.6 ± 4.62 %ID/g
- tissue uptake at 24 h (in vivo; Kidneys uptake): 19.1 ± 2.17 %ID/g
- tissue uptake at 48 h (in vivo; Kidneys uptake): 8.47 ± 0.04 %ID/g
- tissue uptake at 0.5 h (in vivo; Liver uptake): 0.8 ± 0.19 %ID/g
- tissue uptake at 24 h (in vivo; Liver uptake): 0.24 ± 0.03 %ID/g
- tissue uptake at 48 h (in vivo; Liver uptake): 0.19 ± 0.03 %ID/g
- tissue uptake at 0.5 h (in vivo; Lung uptake): 2.11 ± 0.65 %ID/g
- tissue uptake at 24 h (in vivo; Lung uptake): 0.26 ± 0.09 %ID/g
- tissue uptake at 48 h (in vivo; Lung uptake): 0.12 ± 0.02 %ID/g
- tissue uptake at 0.5 h (in vivo; Muscle uptake): 0.3 ± 0.13 %ID/g
- tissue uptake at 2 h (in vivo; Muscle uptake): 0.06 ± 0.01 %ID/g
- tissue uptake at 24 h (in vivo; Muscle uptake): 0.04 ± 0.01 %ID/g
- tissue uptake at 48 h (in vivo; Muscle uptake): 0.02 ± 0.01 %ID/g
- tissue uptake at 0.5 h (in vivo; Pancreas uptake): 0.42 ± 0.17 %ID/g
- tissue uptake at 2 h (in vivo; Pancreas uptake): 0.13 ± 0.03 %ID/g
- tissue uptake at 24 h (in vivo; Pancreas uptake): 0.09 ± 0.01 %ID/g
- tissue uptake at 48 h (in vivo; Pancreas uptake): 0.05 ± 0.01 %ID/g
- tissue uptake at 0.5 h (in vivo; Spleen uptake): 1.7 ± 0.62 %ID/g
- tissue uptake at 24 h (in vivo; Spleen uptake): 0.58 ± 0.09 %ID/g
- tissue uptake at 48 h (in vivo; Spleen uptake): 0.46 ± 0.1 %ID/g
- tissue uptake at 0.5 h (in vivo; Stomach uptake): 2.17 ± 0.49 %ID/g
- tissue uptake at 24 h (in vivo; Stomach uptake): 0.21 ± 0.01 %ID/g
- tissue uptake at 48 h (in vivo; Stomach uptake): 0.14 ± 0.02 %ID/g
- tissue uptake at 0.5 h (in vivo; Tumor uptake): 5.74 ± 1.6 %ID/g
- tissue uptake at 24 h (in vivo; Tumor uptake): 1.29 ± 0.02 %ID/g
- tissue uptake at 48 h (in vivo; Tumor uptake): 0.76 ± 0.17 %ID/g
- tissue to tissue ratio at 0.5 h (in vivo; Tumor-to-blood ratio): 8.9 ± 3.09
- tissue to tissue ratio at 2 h (in vivo; Tumor-to-blood ratio): 25.8 ± 10.5
- tissue to tissue ratio at 24 h (in vivo; Tumor-to-blood ratio): 128 ± 30.5
- tissue to tissue ratio at 48 h (in vivo; Tumor-to-blood ratio): 144 ± 36.3
- tissue to tissue ratio at 0.5 h (in vivo; Tumor-to-muscle ratio): 20.6 ± 6.4
- tissue to tissue ratio at 24 h (in vivo; Tumor-to-muscle ratio): 37.7 ± 9.81
- tissue to tissue ratio at 48 h (in vivo; Tumor-to-muscle ratio): 41.1 ± 8.62
- remaining at 2 h, 1.85 MBq/mL (in vitro): > 95%
